Results on two substances are retold here after patent US20240269271A1.

The target of assay [1] is HVEM. The assay can be described thus: competition ELISA, plates coated with BTLA, HVEM binding read out; control protein. On the technique in general: ELISA stands for enzyme-linked immunosorbent assay.
The target of assay [2] is HVEM. Kind of assay: competition ELISA, plates coated with BTLA, HVEM binding read out.

Consider “sequence of the V2 loop of HIV envelope linked to a His-tag”, for which the percent inhibition of HVEM binding to BTLA in assay [1] stood at 45%.

In assay [2], “commercially available gD protein (ligand)” came in with a percent inhibition of HVEM binding to BTLA of 90%.
